Experimental data taken from US11872261B2, “Lipoprotein targeting protease inhibitors and uses” (The United States of America, as represented by the …, priority 2016, dated 2024).
No end group written: not given here. PEG2000 = poly(ethylene) glycol, 2000; VitE = vitamin E (alpha tocopherol)

Legend:
reconstituted HDL (rHDL) = molecular target: T1, reconstituted HDL (rHDL) (Homo sapiens, UniProt P02647); experiment: Binding of A1AT to reconstituted HDL, size exclusion chromatography; details: gel filtration profile, HDL containing apoA-I and phospholipids
T1 construct: Reconstituted HDL was prepared by cholate dialysis method, using human purified apolipoprotein A-I; from tissue
Protocol: FIG. 7A-7B. Alpha-1-antitrypsin has reduced anti-elastase activity when bound to reconstituted HDL. Reconstituted HDL (rHDL) were prepared from apoA-I and phospholipids by cholate dialysis and then co-incubated with alpha-1-antitrypsin (A1AT) to generate A1AT enriched rHDL. (FIG. 7A) Size exclusion chromatography on tandem Superdex 200 columns was used to isolate HDL bound A1AT from lipid free protein. (FIG. 7B) The ability of lipid free and rHDL bound A1AT to inhibit neutrophil elastase (NE) activity was measured by fluorometric assay.
Reconstituted HDL was prepared by cholate dialysis method, using human purified apolipoprotein A-I and 1-palmitoyl-2-oleoyl-sn-glycero-3-phosphocholine (Avanti) as previously described (Matz & Jonas, J Biol Chem 257: 4535-4540, 1982). Native human HDL was isolated from plasma by sequential density gradient ultracentrifugation (Chapman et al., J Lipid Res 22: 339-358, 1981). Reconstituted or native HDL was co-incubated with alpha-1-antitrypsin protein (Human, Sigma Aldrich) overnight at 37° C. Unbound A1AT was removed by filtration, using Amicon Ultra 100 kDa centrifugal filter units (Millipore). Elastase activity assays were performed with the EnzChek® elastase assay kit (Life Technologies). […]

J774 mouse macrophages = experiment: Elastase induced TNF-α production by J774 macrophages; type: cell-based
Protocol: (§1) FIG. 9A-9E. Alpha-1-antitrypsin enriched HDL prevents elastase induced TNF-α production by macrophages. (FIG. 9A) J774 mouse macrophages treated with increasing amounts of porcine pancreatic elastase (PPE) or heat inactivated elastase for 4 hours, TNF-α in the culture media was measured by ELISA. (FIG. 9B) J774 cells pretreated with PBS, isolated human HDL (nHDL), the same HDL enriched with alpha-1-antitrypsin (A1AT nHDL), or lipid free A1AT for 1 hour prior to PPE addition. (FIG. 9C) The ability of each of the cell treatments to inhibit elastase activity was measured in a cell-free assay. (FIG. 9D) Treatments were pre-incubated with PPE prior to addition to cells and TNF-α was measured in the culture media after 4 hours. (FIG. 9E) J774 cells were pre-incubated with each treatment for 1 hour; cells were then washed twice with PBS and placed in fresh media containing PPE and TNF-α was measured in the culture media after 4 hours. All experiments were repeated at least 3 times and were done in triplicates. Treatments were compared using one-way ANOVA and Tukey's multiple comparisons test, p<0.05 was considered significant. The letters above each treatment indicate statistical significance; within each graph, bars bearing different letters were statistically different from each other.
J774 mouse macrophages were used to examine the potential functional role of alpha-1-antitrypsin enriched HDL in inflammation. For these experiments, cells were plated in 12-well culture plates at a density of 1×10^5 cells/well two days prior to the experiment. Cells were washed twice with PBS and placed in serum-free media for 1 hour prior to addition of treatment. Treatments (PBS, nHDL, A1AT-HDL or A1AT) were added to serum-free culture media: HDL protein was matched for nHDL and A1AT-nHDL at a final concentration of 200 μg/mL. A1AT concentration was matched between free A1AT and A1AT-nHDL at a final concentration of 2 μM. Cells were then incubated with elastase (porcine pancreas, Sigma Aldrich, 500 nM) for 4 hours and media was collected and centrifuged at 3,000×g for 5 min to pellet any loose cells or debris and supernatant was transferred to fresh tubes and stored at −80° C. until further analysis. Elisa assays for mouse TNF-α (BioLegend) were performed on cell culture media.
Next, J774 cells were pre-incubated with PBS, native HDL (nHDL), A1AT enriched nHDL, or lipid-free A1AT for 1 hour prior to the addition of elastase to the culture media to allow for […] of A1AT.

[1] = molecular target: T2, porcine pancreatic elastase (PPE) (Sus scrofa, UniProt P00772); experiment: Elastase inhibition of the cell treatments in a cell-free assay; type: biochemical; details: same treatments as for J774 cells
T2 construct: incubated with elastase (porcine pancreas, Sigma Aldrich, 500 nM) for 4 hours; purchased Sigma Aldrich; host or cells: porcine pancreas
Protocol: as §1, with “other. […]” for “other.”

elastase = molecular target: T3, elastase (Sus scrofa, UniProt P00772); experiment: EnzChek elastase inhibitor assay (Example 3); type: biochemical; details: EnzChek Elastase Assay Kit
T3 construct: purchased Molecular Probes E-12056
From the text: Elastase Inhibitor Assay.

HDL = experiment: E-AAPV coincubated with purified human HDL, HDL repurified and tested for elastase inhibitor activity; type: binding; details: coincubated 30 minutes at 37° C., HDL repurified by size-exclusion chromatography
Protocol: Isolated Human HDL was co-incubated with the E-AAPV (SEQ ID NO: 5) peptide for 30 minutes at 37° C. and then HDL was reisolated by FPLC to remove unbound E-AAPV (SEQ ID NO: 5). The HDL was then tested for elastase inhibition activity and compared to control HDL which was coincubated with PBS (no peptide) and repurified. Sampes were matched based on phospholipid content.
E-AAPV peptide binds HDL and confers elastase inhibitor activity. The reaction product (E-AAPV; SEQ ID NO: 5) was coincubated with purified human HDL for 30 minutes at 37° C. followed by repurification of HDL by size-exclusion chromatography to remove unbound E-AAPV (SEQ ID NO: 5) peptide. The repurified HDL was then tested for elastase inhibitor activity using the assay described above.
E-AAPV (SEQ ID NO: 5)-loaded HDL was compared to the same HDL that was coincubated with buffer only (No peptide). The HDL and HDL+E-AAPV (SEQ ID NO: 5) were normalized based on phospholipid content, determined by colorimetric assay, prior to measurement of elastase activity.

T3 sequence (P00772 27-266): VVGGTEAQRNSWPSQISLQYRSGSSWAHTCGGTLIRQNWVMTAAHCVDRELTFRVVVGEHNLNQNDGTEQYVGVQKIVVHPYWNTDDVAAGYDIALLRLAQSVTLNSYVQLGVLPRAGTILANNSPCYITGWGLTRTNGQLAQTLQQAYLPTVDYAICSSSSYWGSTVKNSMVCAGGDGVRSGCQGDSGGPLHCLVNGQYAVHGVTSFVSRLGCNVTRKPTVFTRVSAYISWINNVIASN
T1 sequence (P02647 25-267): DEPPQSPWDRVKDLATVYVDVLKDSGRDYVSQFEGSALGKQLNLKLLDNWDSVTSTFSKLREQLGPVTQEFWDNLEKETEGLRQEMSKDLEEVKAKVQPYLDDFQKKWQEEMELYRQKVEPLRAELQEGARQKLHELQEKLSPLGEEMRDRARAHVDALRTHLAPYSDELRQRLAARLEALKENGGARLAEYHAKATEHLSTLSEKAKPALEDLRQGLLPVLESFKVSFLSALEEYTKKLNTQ
T2 sequence (P00772 27-266): as the sequence (P00772 27-266) above

| protection against elastase induced TNF-α production (J774 mouse macrophages; pretreated 1 hour prior to elastase, A1AT 2 μM) | protection against elastase induced TNF-α production after removal of treatment (J774 mouse macrophages; pretreated 1 hour, cells washed, fresh media containing elastase) | inhibition of elastase activity in a cell-free system [1] | elastase inhibitor activity (elastase; listed as VitE-PEG-AAPV) | binding to HDL (HDL) | Substance | association of A1AT with discoidal reconstituted HDL (reconstituted HDL (rHDL)) | proteolytic degradation of A1AT in cell culture media, western blot (J774 mouse macrophages; J774 cell culture media) | inhibition of elastase induced TNF-α production, treatment pre-incubated with elastase (J774 mouse macrophages; pre-incubated with elastase prior to addition to the cells) | elastase inhibitor activity (elastase) |
| --- | --- | --- | --- | --- | --- | --- | --- | --- | --- |
| no significant protection | no effect | significant anti-elastase activity | – | – | A1AT: alpha-1-antitrypsin protein (Human, Sigma Aldrich), serine protease inhibitor | a significant fraction of A1AT associates with HDL | no evidence of proteolytic degradation | readily able to inhibit elastase induced TNF-α production | – |
| – | – | – | retains elastase inhibitor activity | binds HDL | VitE-PEG-Ala-Ala-Pro-Val ({VitE-PEG2000}-AAPV) [E-AAPV, vitamin E linked to the A1AT linear peptide AAPV via a PEG2000 linker] | – | – | – | does not affect elastase inhibition activity |
